T1: human CDH6 on tumor cells (OVCAR3 cells, PA-1 cells) (human, UniProt P55285 54-790)
T1 sequence: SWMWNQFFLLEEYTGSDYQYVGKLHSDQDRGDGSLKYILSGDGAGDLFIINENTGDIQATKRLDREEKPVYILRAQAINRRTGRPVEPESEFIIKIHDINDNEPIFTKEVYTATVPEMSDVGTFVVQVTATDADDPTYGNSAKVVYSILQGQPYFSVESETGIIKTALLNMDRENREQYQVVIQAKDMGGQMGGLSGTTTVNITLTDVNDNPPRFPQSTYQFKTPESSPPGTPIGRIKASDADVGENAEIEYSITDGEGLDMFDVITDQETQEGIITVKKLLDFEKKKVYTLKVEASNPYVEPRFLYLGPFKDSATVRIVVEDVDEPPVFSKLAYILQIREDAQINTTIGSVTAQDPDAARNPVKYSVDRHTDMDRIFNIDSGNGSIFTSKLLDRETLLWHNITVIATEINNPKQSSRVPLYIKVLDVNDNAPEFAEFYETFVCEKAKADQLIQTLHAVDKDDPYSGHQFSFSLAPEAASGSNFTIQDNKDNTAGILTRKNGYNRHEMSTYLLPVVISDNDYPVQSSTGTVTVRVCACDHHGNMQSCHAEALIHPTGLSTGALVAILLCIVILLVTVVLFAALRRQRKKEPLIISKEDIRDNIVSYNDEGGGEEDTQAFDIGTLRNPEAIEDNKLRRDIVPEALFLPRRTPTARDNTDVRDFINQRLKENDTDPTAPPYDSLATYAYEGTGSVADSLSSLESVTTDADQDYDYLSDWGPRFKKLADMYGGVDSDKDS

T2: his-tagged human CDH6 extracellular region protein (hCDH6 ECD-his) (human, UniProt P55285 19-615)
T2 construct: also called Human CDH6-his; hCDH6-his; not shown: his tag
T2 sequence: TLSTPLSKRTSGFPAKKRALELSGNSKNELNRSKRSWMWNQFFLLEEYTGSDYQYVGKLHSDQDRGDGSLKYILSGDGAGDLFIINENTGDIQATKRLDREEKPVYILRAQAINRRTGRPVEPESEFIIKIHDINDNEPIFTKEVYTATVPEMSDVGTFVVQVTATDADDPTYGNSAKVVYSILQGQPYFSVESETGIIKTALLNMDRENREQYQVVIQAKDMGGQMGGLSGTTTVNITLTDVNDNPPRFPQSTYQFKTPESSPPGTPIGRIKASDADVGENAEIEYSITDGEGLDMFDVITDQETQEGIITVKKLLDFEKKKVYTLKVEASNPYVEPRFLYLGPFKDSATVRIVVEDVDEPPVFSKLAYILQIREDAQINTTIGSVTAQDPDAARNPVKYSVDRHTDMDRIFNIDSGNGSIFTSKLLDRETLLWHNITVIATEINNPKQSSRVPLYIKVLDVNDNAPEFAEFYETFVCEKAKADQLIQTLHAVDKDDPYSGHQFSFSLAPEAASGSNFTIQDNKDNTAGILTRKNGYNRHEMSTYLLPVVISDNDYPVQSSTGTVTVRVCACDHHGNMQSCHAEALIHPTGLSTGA


Legend:
[1] = target: T1, human CDH6 on tumor cells (OVCAR3 …); assay: FACS, OVCAR3 cells, 4° C. arm of endocytosis assay, antibody diluted to 10 µg/mL
Procedure: OVCAR3 cells were cultured until a confluence of 90% was reached, the medium was removed by pipetting, the cells were washed once with PBS, and then treated with an enzyme-free cell dissociation solution (Versene, purchased from Gibco, Cat. No. 15040-066) and the cells were collected. The cells were washed once with PBS, counted, resuspended to 2×10⁶ cells/mL in an FACS buffer (PBS+2% FBS), and then added to two 96-well plates at 50 μL/well. The chimeric antibodies were diluted with FACS buffer (PBS+2% FBS) to 10 μg/mL and separately added to the two 96-well plates at 50 μL/well, and the plates were incubated at 4° C. for 1 h. After the cells were washed 3 times with PBS, the cells were resuspended in an FACS buffer. One 96-well plate was incubated at 4° C. for 1 h, and the other 96-well plate was incubated at 37° C. for 1 h. […] After the plates were centrifuged and washed 2 times with PBS, the cells were resuspended in an FACS buffer. The mean fluorescence intensity (MFI) was measured using FACS Canton II (BD). The chimeric antibodies tested all had good endocytic activity.

[2] = target: T2, his-tagged human CDH6 extracellular …; assay: ELISA, coated antigen; ELISA, hCDH6 ECD-his coated at 1 µg/mL, antibody in solution
Procedure: Human CDH6 protein (hCDH6 ECD-his, conventionally synthesized), monkey CDH6 protein (cynoCDH6 ECD-his, conventionally synthesized; the cynoCDH6 ECD sequence was derived from Uniprot #A0A2K5TW62 (19-615)), and murine CDH6 protein (mCDH6 ECD-his, conventionally synthesized; the mCDH6 ECD sequence was derived from Uniprot #P97326 (19-615)) were diluted with PBS to a final concentration of 1 μg/mL, and added to a 96-well ELISA plate at 100 μL/well. The plate was incubated at 4° C. overnight. The next day, the plate was washed 3 times with a plate washing solution (PBS+0.01% (v/v) Tween 20), and a blocking buffer (PBS+0.01% (v/v) Tween 20+2% (w/w) BSA) was added for blocking at room temperature for 2 h. The blocking buffer was discarded, and the plate was washed 3 times. The chimeric antibodies were diluted with 1% BSA+PBS (purchased from Cytiva, Cat. No. SH30264.01) and added to the 96-well plate at 50 μL/well. After incubation at 37° C. for 2 h, the plate was washed 3 times with a plate washing solution. […] The plate was incubated at 37° C. for 1 h and then washed 5 times with a plate washing solution. A TMB substrate (purchased from Seracare, Cat. No. 5120-0077) was added at 50 μL/well and incubated at room temperature for 10 min, then a stop solution (1.0 N HCl) was added at 50 μL/well. OD450 nm values were read using a microplate reader (Biotek). Analysis was performed by the GraphPad Prism software, data were fitted, and EC50 values were calculated. The chimeric antibodies tested all had strong binding to the human CDH6 protein, the monkey CDH6 protein, and the murine CDH6 protein.

MFI_4° C. [1]	EC50 [2]	Binder
3830 MFI	0.168 nM	DS-H01L02 (antibody, human IgG1, kappa, V domains shown, Positive control, variable regions from WO2018212136A1; also called positive control anti-human CDH6 antibody) VH: EVQLVQSGAEVKKPGASVKVSCKASGYTFTRNFMHWVRQAPGQGLEWMGWIYPGDGETEYAQKFQGRVTITADTSTSTAYMELSSLRSEDTAVYYCARGVYGGFAGGYFDFWGQGTLVTVSS VL: DIQMTQSPSSLSASVGDRVTITCKASQNIYKNLAWYQQKPGKAPKLLIYDANTLQTGVPSRFSGSGSGSDFTLTISSLQPEDFATYFCQQYYSGWAFGQGTKVEIKR
5740 MFI	0.105 nM	CHI-CDH6-12 (antibody, human IgG1, kappa, V domains shown, also called CH1-CDH6-12; chimeric antibody of murine CDH6-12) VH: EVNLVESGGGLVQPGDSLTLSCSASGFTFTDYYMSWVRQFPGKALEWLALIRNKANSYTTEYSASVKGRFTISRDNSQSILYLQMNALRAEDSATYYCARDSYYSHDGFAYWGQGTLVTVSA VL: DIVLTQSPASLAVSLGQRATISCRASKSVSTSSYTYMHWYQQKPGQPPKLLIKFASYLESGVPARFSGSGSGTDFTLNIHPVEEEDAATYYCQHSREFPFTFGTGTKLEIKR
5580 MFI	0.488 nM	CHI-CDH6-7 (antibody, human IgG1, kappa, V domains shown, also called CH1-CDH6-7; chimeric antibody of murine CDH6-7) VH: EVKLVESGGGLVKPGGSLKVSCAASGFTFSDHGMAWVRQAPGKGPEWVAFISNLAYSIYYADTVTGRFTISRENAKNTLYLEMSSLRSEDTAMYYCARVYVKWYFDVWGAGTTVTVSS VL: DIQMTQSPASLSASVGETVTITCRASENIDSYLAWYQQKQGKSPQLLVFAATLLADGVPSRFSGSGSGTQYSLKINSLQSEDVARYYCQHYYSTPLTFGAGTKLELKR

Source: patent US20260234242A1 (HAINAN SIMCERE ZAIMING PHARMACEUTICAL, published 2026)
